This is an account of results in PMC5209733, “U24 from Roseolovirus interacts strongly with Nedd4 WW Domains” (Scientific Reports, 2017).

Non-standard residues stand in square brackets, D forms with d. No end group written: not given here. pT = C[C@@H](OP(=O)(O)O)[C@H](N)C(=O)O

Assay [1] deals with T1, rNedd4-WW3/4 domain (third WW domain of rat Nedd4, GST tag removed) (rat, UniProt Q62940 452-499).
T1 construct: Nedd4 E3 ubiquitin ligase, rat, third WW domain (WW3/4, homologue of the fourth WW domain in human); Thrombin cleavage may leave vector residues at the N-terminus (surmised); source: E. coli BL21(DE3), purified (Glutathione Sepharose 4B, thrombin cleavage on the resin); 15N-labelled in M9 medium for NMR; not shown: GST, N-terminal, cleaved
Put plainly: ITC; peptide titrated into the cleaved WW domain (40 to 150 uM) in the cell; 10 mM sodium phosphate, pH 7.4, 25 °C; MicroCal VP-ITC; bimolecular interaction model; three runs (further runs with 100 mM and 500 mM NaCl told in words only). The conditions noted are these: both partners purified. (In ITC the heat of successive injections is recorded.)

Assay [2] addresses T2, U24-6A protein (recombinant full length U24 from HHV-6A) (Human Herpes Virus type 6A (HHV-6A), UniProt Q69559 1-87).
T2 construct: U24 protein of Human Herpes Virus type 6A (HHV-6A), full length
T2 sequence: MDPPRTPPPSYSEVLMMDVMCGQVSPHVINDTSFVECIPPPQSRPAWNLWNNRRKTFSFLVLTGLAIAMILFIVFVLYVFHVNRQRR
Put plainly: pull-down; GST-Nedd4 WW domain (1 to 2 nmole) immobilised on 20 uL Glutathione Sepharose 4B resin, incubated 1 hour at 4 °C with U24 protein in pull down buffer (20 mM KH2PO4, 75 mM NaCl, 0.5% Triton X-100, pH 7.4; 1 mM DTT for U24-7); SDS-PAGE, silver stain. The conditions noted are these: both partners purified.

B1: U24-6A peptide (15-mer, N-terminus of U24 from HHV-6A) (peptide)
peptide: MDPPRTPPPSYSEVL
notes: U24 protein of Human Herpes Virus type 6A (HHV-6A), first 15 residues; source: purified peptide
In general, Kd refers to the equilibrium constant for the complex coming apart. Low readings indicate a tighter complex, high ones a looser complex. Consider B1, for which, in assay [1], the dissociation constant (Kd) worked out at 43 µM and the dH is -11 kcal/mol.

B2: pU24-6A peptide (15-mer, N-terminus of U24 from HHV-6A phosphorylated at Thr6) (peptide)
peptide: MDPPR[pT]PPPSYSEVL
notes: U24 protein of Human Herpes Virus type 6A (HHV-6A), 15-mer of the N-terminus with phospho-threonine at Thr6; source: purified peptide
For B2, in assay [1], the Kd turned out to be 13.5 µM and the dH was -12.9 kcal/mol.

B3: GST-hNedd4L-WW3* (third WW domain of human Nedd4-like protein fused to the C-terminus of GST) (domain or fragment)
chain: QSFLPPGWEMRIAPNGRPFFIDHNTKTTTWEDPRLKFPVHMRSK
notes: Nedd4-like protein (Nedd4L), human, cDNA clone KIAA0439, third WW domain (WW3*); Cloned into BamHI and XhoI sites of pGEX-4T2; source: E. coli BL21(DE3), purified (Glutathione Sepharose 4B, eluted with glutathione); not shown: GST, N-terminal, kept
Regarding B3, in assay [2], the binding result is reported as “binds”.

B4: GST-rNedd4-WW3/4 (third WW domain of rat Nedd4 fused to the C-terminus of GST) (domain or fragment)
chain: PVDSNDLGPLPPGWEERTHTDGRVFFINHNIKKTQWEDPRMQNVAITG
notes: Nedd4 E3 ubiquitin ligase, rat, third WW domain (WW3/4, homologue of the fourth WW domain in human); Plasmid was a gift from J. D. Forman-Kay; source: E. coli BL21(DE3), purified (Glutathione Sepharose 4B, eluted with glutathione); not shown: GST, N-terminal, kept
For B4, the binding result in assay [2] is reported as “binds”.
